The values that follow come from patent publication US20130323786A1.

The target of assay [1] is LINGO-1 (human) (UniProt Q96FE5). Description: ELISA.
Assay [2] has the same target. In words: affinity vs parent Li62 Fab; method not stated.
Assay [3] has the same target. In words: LINGO-1 ELISA.

B1: Li62 variant F06 Fab (VH CDR3 SEQ ID NO:19) (Fab, V domains shown)
VH: EVQLLESGGGLVQPGGSLRLSCAASGFTFSIYPMFWVRQAPGKGLEWVSWIGPSGGITKYADSVKGRFTISRDNSKNTLYLQMNSLRAEDTATYYCAREGDYDWYFDLWGRGTLVTVSS
VL: DIQMTQSPSFLSASVGDSVAITCRASQDISRYLAWYQQRPGKAPKLLIYDASNLQTGVPSRFSGSGSGTDFTFTITSLQPEDFGTYYCQQYDTLHPSFGPGTTVDIK
On to B1, for which the ELISA Signal with LINGO-1 (human) [1] was 3. Besides, in the assay with LINGO-1 (human) [2], the Fold-Improvement worked out at 12 fold.

B2: Li62 variant F06 Fab (VH CDR3 SEQ ID NO:25) (Fab, V domains shown)
VH: EVQLLESGGGLVQPGGSLRLSCAASGFTFSIYPMFWVRQAPGKGLEWVSWIGPSGGITKYADSVKGRFTISRDNSKNTLYLQMNSLRAEDTATYYCAREGRYDWYFDLWGRGTLVTVSS
VL: DIQMTQSPSFLSASVGDSVAITCRASQDISRYLAWYQQRPGKAPKLLIYDASNLQTGVPSRFSGSGSGTDFTFTITSLQPEDFGTYYCQQYDTLHPSFGPGTTVDIK
Molecule B2 registered an ELISA Signal with LINGO-1 (human) [1] of 3. Also, the Fold-Improvement in the assay with LINGO-1 (human) [2] is 8 fold.

B3: Li62 variant H08 Fab (VH CDR3 SEQ ID NO:34) (Fab, V domains shown)
VH: EVQLLESGGGLVQPGGSLRLSCAASGFTFSIYPMFWVRQAPGKGLEWVSWIGPSGGITKYADSVKGRFTISRDNSKNTLYLQMNSLRAEDTATYYCAREGTYDWYFDLWGRGTLVTVSS
VL: DIQMTQSPSFLSASVGDSVAITCRASQDISRYLAWYQQRPGKAPKLLIYDASNLQTGVPSRFSGSGSGTDFTFTITSLQPEDFGTYYCQQYDTLHPSFGPGTTVDIK
In the assay with LINGO-1 (human) [1], B3 had an ELISA Signal of 3. For the same molecule, in the assay with LINGO-1 (human) [2], the Fold-Improvement was 9 fold.

B4: Li62 Fab (Fab, V domains shown)
VH: EVQLLESGGGLVQPGGSLRLSCAASGFTFSIYPMFWVRQAPGKGLEWVSWIGPSGGITKYADSVKGRFTISRDNSKNTLYLQMNSLRAEDTATYYCAREGHNDWYFDLWGRGTLVTVSS
VL: DIQMTQSPSFLSASVGDSVAITCRASQDISRYLAWYQQRPGKAPKLLIYDASNLQTGVPSRFSGSGSGTDFTFTITSLQPEDFGTYYCQQYDTLHPSFGPGTTVDIK
In the assay with LINGO-1 (human) [3], B4 registered an EC50 of 0.26 nM.

B5: Li62 variant D09 Fab (VH CDR3 SEQ ID NO:21) (Fab, V domains shown)
VH: EVQLLESGGGLVQPGGSLRLSCAASGFTFSIYPMFWVRQAPGKGLEWVSWIGPSGGITKYADSVKGRFTISRDNSKNTLYLQMNSLRAEDTATYYCAREADIDWFFDLWGRGTLVTVSS
VL: DIQMTQSPSFLSASVGDSVAITCRASQDISRYLAWYQQRPGKAPKLLIYDASNLQTGVPSRFSGSGSGTDFTFTITSLQPEDFGTYYCQQYDTLHPSFGPGTTVDIK
Regarding B5, the ELISA Signal with LINGO-1 (human) [1] turned out to be 3. Besides, in the assay with LINGO-1 (human) [2], the Fold-Improvement was determined as 15 fold.

B6: Li113 Fab (Li62 variant C02, VH CDR3 SEQ ID NO:30) (Fab, V domains shown)
VH: EVQLLESGGGLVQPGGSLRLSCAASGFTFSIYPMFWVRQAPGKGLEWVSWIGPSGGITKYADSVKGRFTISRDNSKNTLYLQMNSLRAEDTATYYCAREGTYDWYLDLWGRGTLVTVSS
VL: DIQMTQSPSFLSASVGDSVAITCRASQDISRYLAWYQQRPGKAPKLLIYDASNLQTGVPSRFSGSGSGTDFTFTITSLQPEDFGTYYCQQYDTLHPSFGPGTTVDIK
The molecule B6 showed an EC50 with LINGO-1 (human) [3] of 0.09 nM. Also, the ELISA Signal with LINGO-1 (human) [1] worked out at 3. The Fold-Improvement with LINGO-1 (human) [2] turned out to be 8 fold.

B7: Li62 variant G08 Fab (VH CDR3 SEQ ID NO:27) (Fab, V domains shown)
VH: EVQLLESGGGLVQPGGSLRLSCAASGFTFSIYPMFWVRQAPGKGLEWVSWIGPSGGITKYADSVKGRFTISRDNSKNTLYLQMNSLRAEDTATYYCAREGQYDWYFDVWGRGTLVTVSS
VL: DIQMTQSPSFLSASVGDSVAITCRASQDISRYLAWYQQRPGKAPKLLIYDASNLQTGVPSRFSGSGSGTDFTFTITSLQPEDFGTYYCQQYDTLHPSFGPGTTVDIK
With B7, in the assay with LINGO-1 (human) [1], the ELISA Signal turned out to be 3. Further, the Fold-Improvement with LINGO-1 (human) [2] amounted to 10 fold.

B8: Li62 variant C10 Fab (VH CDR3 SEQ ID NO:33) (Fab, V domains shown)
VH: EVQLLESGGGLVQPGGSLRLSCAASGFTFSIYPMFWVRQAPGKGLEWVSWIGPSGGITKYADSVKGRFTISRDNSKNTLYLQMNSLRAEDTATYYCAREGQFDWYFDLWGRGTLVTVSS
VL: DIQMTQSPSFLSASVGDSVAITCRASQDISRYLAWYQQRPGKAPKLLIYDASNLQTGVPSRFSGSGSGTDFTFTITSLQPEDFGTYYCQQYDTLHPSFGPGTTVDIK
On to B8, for which the ELISA Signal with LINGO-1 (human) [1] was found to be 3. Moreover, in the assay with LINGO-1 (human) [2], the Fold-Improvement worked out at 9 fold.

B9: Li62 variant F10 Fab (VH CDR3 SEQ ID NO:26) (Fab, V domains shown)
VH: EVQLLESGGGLVQPGGSLRLSCAASGFTFSIYPMFWVRQAPGKGLEWVSWIGPSGGITKYADSVKGRFTISRDNSKNTLYLQMNSLRAEDTATYYCARESHIDRYFDLWGRGTLVTVSS
VL: DIQMTQSPSFLSASVGDSVAITCRASQDISRYLAWYQQRPGKAPKLLIYDASNLQTGVPSRFSGSGSGTDFTFTITSLQPEDFGTYYCQQYDTLHPSFGPGTTVDIK
On to B9, for which the ELISA Signal with LINGO-1 (human) [1] came to 3. The Fold-Improvement with LINGO-1 (human) [2] came to 5 fold.

B10: Li62 variant C10 Fab (VH CDR3 SEQ ID NO:29) (Fab, V domains shown)
VH: EVQLLESGGGLVQPGGSLRLSCAASGFTFSIYPMFWVRQAPGKGLEWVSWIGPSGGITKYADSVKGRFTISRDNSKNTLYLQMNSLRAEDTATYYCAREGYYDWYFDLWGRGTLVTVSS
VL: DIQMTQSPSFLSASVGDSVAITCRASQDISRYLAWYQQRPGKAPKLLIYDASNLQTGVPSRFSGSGSGTDFTFTITSLQPEDFGTYYCQQYDTLHPSFGPGTTVDIK
Molecule B10 registered an ELISA Signal in the assay with LINGO-1 (human) [1] of 3. Further, the Fold-Improvement with LINGO-1 (human) [2] is 11 fold.

B11: Li62 variant H08 Fab (VH CDR3 SEQ ID NO:28) (Fab, V domains shown)
VH: EVQLLESGGGLVQPGGSLRLSCAASGFTFSIYPMFWVRQAPGKGLEWVSWIGPSGGITKYADSVKGRFTISRDNSKNTLYLQMNSLRAEDTATYYCAREGHYNGYFDLWGRGTLVTVSS
VL: DIQMTQSPSFLSASVGDSVAITCRASQDISRYLAWYQQRPGKAPKLLIYDASNLQTGVPSRFSGSGSGTDFTFTITSLQPEDFGTYYCQQYDTLHPSFGPGTTVDIK
In the assay with LINGO-1 (human) [1], B11 displayed an ELISA Signal of 0.5. Besides, the Fold-Improvement in the assay with LINGO-1 (human) [2] was determined as 6 fold.

B12: Li62 variant B06 Fab (VH CDR3 SEQ ID NO:17) (Fab, V domains shown)
VH: EVQLLESGGGLVQPGGSLRLSCAASGFTFSIYPMFWVRQAPGKGLEWVSWIGPSGGITKYADSVKGRFTISRDNSKNTLYLQMNSLRAEDTATYYCAREGYYDWYFDQWGRGTLVTVSS
VL: DIQMTQSPSFLSASVGDSVAITCRASQDISRYLAWYQQRPGKAPKLLIYDASNLQTGVPSRFSGSGSGTDFTFTITSLQPEDFGTYYCQQYDTLHPSFGPGTTVDIK
As to B12, the ELISA Signal in the assay with LINGO-1 (human) [1] was found to be 3. The Fold-Improvement with LINGO-1 (human) [2] turned out to be 8 fold.

B13: Li62 variant D05 Fab (VH CDR3 SEQ ID NO:31) (Fab, V domains shown)
VH: EVQLLESGGGLVQPGGSLRLSCAASGFTFSIYPMFWVRQAPGKGLEWVSWIGPSGGITKYADSVKGRFTISRDNSKNTLYLQMNSLRAEDTATYYCAREGYYDWYFELWGRGTLVTVSS
VL: DIQMTQSPSFLSASVGDSVAITCRASQDISRYLAWYQQRPGKAPKLLIYDASNLQTGVPSRFSGSGSGTDFTFTITSLQPEDFGTYYCQQYDTLHPSFGPGTTVDIK
For the molecule B13, in the assay with LINGO-1 (human) [1], the ELISA Signal was 3. The Fold-Improvement with LINGO-1 (human) [2] worked out at 10 fold.

B14: Li62 variant B01 Fab (VH CDR3 SEQ ID NO:20) (Fab, V domains shown)
VH: EVQLLESGGGLVQPGGSLRLSCAASGFTFSIYPMFWVRQAPGKGLEWVSWIGPSGGITKYADSVKGRFTISRDNSKNTLYLQMNSLRAEDTATYYCAREGQYDWYFELWGRGTLVTVSS
VL: DIQMTQSPSFLSASVGDSVAITCRASQDISRYLAWYQQRPGKAPKLLIYDASNLQTGVPSRFSGSGSGTDFTFTITSLQPEDFGTYYCQQYDTLHPSFGPGTTVDIK
B14: the ELISA Signal with LINGO-1 (human) [1] was determined as 3. The Fold-Improvement with LINGO-1 (human) [2] worked out at 8 fold.

B15: Li62 variant F01 Fab (VH CDR3 SEQ ID NO:23) (Fab, V domains shown)
VH: EVQLLESGGGLVQPGGSLRLSCAASGFTFSIYPMFWVRQAPGKGLEWVSWIGPSGGITKYADSVKGRFTISRDNSKNTLYLQMNSLRAEDTATYYCAREGRYDWYFDPWGRGTLVTVSS
VL: DIQMTQSPSFLSASVGDSVAITCRASQDISRYLAWYQQRPGKAPKLLIYDASNLQTGVPSRFSGSGSGTDFTFTITSLQPEDFGTYYCQQYDTLHPSFGPGTTVDIK
On to B15, for which the ELISA Signal with LINGO-1 (human) [1] amounted to 3. Also, in the assay with LINGO-1 (human) [2], the Fold-Improvement came out at 9 fold.

B16: Li62 variant D12 Fab (VH CDR3 SEQ ID NO:22) (Fab, V domains shown)
VH: EVQLLESGGGLVQPGGSLRLSCAASGFTFSIYPMFWVRQAPGKGLEWVSWIGPSGGITKYADSVKGRFTISRDNSKNTLYLQMNSLRAEDTATYYCAREGHYDWYFDLWGRGTLVTVSS
VL: DIQMTQSPSFLSASVGDSVAITCRASQDISRYLAWYQQRPGKAPKLLIYDASNLQTGVPSRFSGSGSGTDFTFTITSLQPEDFGTYYCQQYDTLHPSFGPGTTVDIK
In the assay with LINGO-1 (human) [1], B16 returned an ELISA Signal of 3. Moreover, the Fold-Improvement in the assay with LINGO-1 (human) [2] turned out to be 8 fold.

B17: Li62 variant B12 Fab (VH CDR3 SEQ ID NO:18) (Fab, V domains shown)
VH: EVQLLESGGGLVQPGGSLRLSCAASGFTFSIYPMFWVRQAPGKGLEWVSWIGPSGGITKYADSVKGRFTISRDNSKNTLYLQMNSLRAEDTATYYCAREGQYDWYFDVWGRGTLVTVSS
VL: DIQMTQSPSFLSASVGDSVAITCRASQDISRYLAWYQQRPGKAPKLLIYDASNLQTGVPSRFSGSGSGTDFTFTITSLQPEDFGTYYCQQYDTLHPSFGPGTTVDIK
Take B17: in the assay with LINGO-1 (human) [1], the ELISA Signal was determined as 3. Further, in the assay with LINGO-1 (human) [2], the Fold-Improvement was determined as 8 fold.

B18: Li62 variant F02 Fab (VH CDR3 SEQ ID NO:32) (Fab, V domains shown)
VH: EVQLLESGGGLVQPGGSLRLSCAASGFTFSIYPMFWVRQAPGKGLEWVSWIGPSGGITKYADSVKGRFTISRDNSKNTLYLQMNSLRAEDTATYYCAREGLIDWFFDQWGRGTLVTVSS
VL: DIQMTQSPSFLSASVGDSVAITCRASQDISRYLAWYQQRPGKAPKLLIYDASNLQTGVPSRFSGSGSGTDFTFTITSLQPEDFGTYYCQQYDTLHPSFGPGTTVDIK
Regarding B18, the ELISA Signal with LINGO-1 (human) [1] was 3. The Fold-Improvement in the assay with LINGO-1 (human) [2] is 16 fold.

B19: Li62 variant F02 Fab (VH CDR3 SEQ ID NO:24) (Fab, V domains shown)
VH: EVQLLESGGGLVQPGGSLRLSCAASGFTFSIYPMFWVRQAPGKGLEWVSWIGPSGGITKYADSVKGRFTISRDNSKNTLYLQMNSLRAEDTATYYCAREGDYDWYFGLWGRGTLVTVSS
VL: DIQMTQSPSFLSASVGDSVAITCRASQDISRYLAWYQQRPGKAPKLLIYDASNLQTGVPSRFSGSGSGTDFTFTITSLQPEDFGTYYCQQYDTLHPSFGPGTTVDIK
B19: the ELISA Signal with LINGO-1 (human) [1] worked out at 3. The Fold-Improvement with LINGO-1 (human) [2] came out at 8 fold.
